Data as given in patent US20070048219A1.

Biological target: IL-8 receptors on human neutrophils
Assay: unlabeled IL-8 displaces 125I-IL-8 from IL-8 receptors on human neutrophils; value in the legend box without a column head, IC50

**Q.** How did the IC50 turn out when “recombinant human IL-8, (ser-IL-8)72 (from UniProt P10145 28-99) (ligand)” was run?
**A.** 0.078 nM
